# In patent US20250011363A1, “OPTIMIZED SHORTENED PEPTIDE THAT BINDS TO ACETYLCHOLINE RECEPTOR, AND USE THEREOF” (SKINMED CO., LTD., priority 2021, published 2025):
# Biological target: acetylcholine receptor
# Assay: SPR, AchR immobilized on chip, peptide at 10 uM
row,Binder,Binding affinity
1,RLVTKR [6mer-2-62],147 RU
2,RGFQRK [6mer-2-61],148 RU
3,RRLSKK [6mer-2-60],148 RU
4,KSFRKR [6mer-2-63],121 RU
5,RCTNKR [6mer-2-1199],27 RU
6,KGRRRK [6mer-2-68],142 RU
7,RHHNRR [6mer-2-1200],30 RU

# Results, then the binder that gave them:
row,Binding affinity,Binder
1,136 RU,KSVSKK [6mer-2-64]
2,123 RU,RVLSRK [6mer-2-59]
3,123 RU,RVIRRR [6mer-2-66]
4,122 RU,KRLQRK [6mer-2-58]
5,148 RU,KGVCKR [6mer-2-65]
6,124 RU,KLFCKK [6mer-2-67]

# Biological target: acetylcholine receptor
# Assay: SPR, peptide at 10 uM on immobilised AchR
row,Binder,Binding affinity (RU)
1,RRQVRR [6mer-1-30],154 RU
2,RKGITK [6mer-1-41],122 RU
3,RKQILR [6mer-1-2],142 RU
4,RKRFLK [6mer-1-14],145 RU
5,RKWQQK [6mer-1-36],124 RU
6,KRSQYK [6mer-1-40],121 RU
7,RKRRSR [6mer-1-3],154 RU
8,RKSFCK [6mer-1-9],154 RU
9,KKRVLR [6mer-1-26],123 RU
10,KKLIRR [6mer-1-25],135 RU
11,KRQIRK [6mer-1-5],135 RU
12,KRSFYR [6mer-1-19],135 RU
13,KKSRYK [6mer-1-20],147 RU
14,KKVISK [6mer-1-1],122 RU
15,KRWRLK [6mer-1-10],139 RU
16,KKQYCR [6mer-1-16],136 RU
17,KRQYSK [6mer-1-7],126 RU
18,KKSYCR [6mer-1-33],154 RU
19,RKSRCK [6mer-1-6],153 RU
20,KKWVLR [6mer-1-37],121 RU
21,KRSFTK [6mer-1-27],142 RU
22,KRSVSR [6mer-1-23],153 RU
23,RKRLCK [6mer-1-22],126 RU
24,KRLISR [6mer-1-29],124 RU
25,RKVIRK [6mer-1-24],142 RU

# Results, then the binder that gave them:
row,Binding affinity (RU),Binder
1,145 RU,KKQFTR [6mer-1-18]
2,126 RU,RRQQTK [6mer-1-38]
3,125 RU,RKRRRK [6mer-1-8]
4,139 RU,KRQFTK [6mer-1-11]
5,135 RU,RKWLYK [6mer-1-34]
6,125 RU,RRWISK [6mer-1-28]
7,135 RU,KRVQCR [6mer-1-17]
8,121 RU,RKGQCR [6mer-1-32]
9,148 RU,KRQYCK [6mer-1-44]
10,139 RU,RKVYQK [6mer-1-39]
11,147 RU,KRQIQR [6mer-1-13]
12,139 RU,KKRIQR [6mer-1-42]
13,121 RU,KRLYCR [6mer-1-31]
14,136 RU,RRGRQR [6mer-1-35]
15,128 RU,KKQICK [6mer-1-12]
16,137 RU,RKWYLK [6mer-1-21]
17,123 RU,KRQICK [6mer-1-15]
18,139 RU,RKSFYK [6mer-1-4]
